These results are taken from a protein production outcome set (Wang et al. 2014).
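Note: failed if final PepcDB status was selected cloned or expressed and not failed if soluble or beyond.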

A short description of this data set: label from the status in PepcDB records.
In the case of “SLLSYQHGYHAGNFADVIKHITLTRLLAYLTHKDKPLFYLETHSGRGIYDLKDKQSLKTEEYKEGINPVWLDRENLPSLFLEYISVIKQINLNSTLSYYPGSPYFAINQLRSQDRLYLCELHPTEYNFLLKLPHFNKKVYVNHTDGVSKLNALLPPPEKRGLIFIDPSYERKEEYKEIPYAIKNAYSKFSTGLYCVWYPVVNKAWTEQFLRKMREISSKSVRIELHLNPLINEGMTGCGLWIINPPYTFPSEIKLVLETLTTYFNPGSSSYMIESGSKLCHGL”, the protein production result is on record as “not failed”.

With “SLPMQHVHTSPVRDYRNRCARREGETVFQVVVEETDLRVTALAELATPMAAYVGELRAQLKVWMEFQPAFRHSLVPVEVPEGAPEVVRRMAHGARLVGVGPFAAVAGTIAQMVAERFVDVSPELIVENGGDLYLYSERDRVVGILPDPASGDMVGILVRAGTAPVSLCGSSARIGHSLSLGDGDLAVVRARDASLADAAATAFGNMLRRADDVAAVTERAAQLASIGIEGVYAQCGGRIGIWGDMELAVA”, the protein production result is recorded as “not failed”.

Consider “SLRLHAGVWGLKVRYEGSFEVSKTPEEVFEFLTDPKRFSRAFPGFKSVEVEDGSFTIELRLSLGPLRGDARVRASFEDLEKPSKATVKGSGRGAGSTLDFTLRFAVEPSGGGSRVSWVFEGNVGGLAASMGGRVLDSLARRMINDVISGVKRELGEA”, for which the protein production result is reported as “not failed”.

For the sequence “SLRPPLPPATPQEVQFVQHMLQHHAQALDLAAPMLERSQQRTVRSLALDIQLSQREQMRQMEAMLGRWGQPPGEPISPEHARMMGMASEAEVAGLSTLPVEQAERQFLRLMIRHHQGAVAMTLPMLDAAARPEVERLARQIVVTQRGEIRTMEGVLGRLDGEVPAAPMRPVEHGHGH”, the protein production entry is given as “not failed”.

On to “SMLSRAKPAVGGESPHTDKRKKKGRKIPKLEDLLSQRDFTGAITLLEFKRHVGEQEDDTNLWIGYCAFHLGDYKRALEEYENATKEENCNPEVWVNLACTYFFLGMYKQAEAAGFKAPKSRLQNRLLFHLAHKFNDEKKLMNFHQNLQDIKEDQLSLASNSEIHLPLPPECWD”, for which the protein production result is reported as “failed”.

In the case of “SNKLYIGNLSPAVTADDLRQLFGDRKLPLAGQVLLKSGYAFVDYPDQNWAIRAIETLSGKVELHGKIMEVDYSVSKKLRSRKIQIRNIPPHLQWEVLDGLLAQYGTVENVEQVNTDTETAVVNVTYATREEAKIAMEKLSGHQFENYSFKISYIPDEEVSSPSPPQRAQRGDHSSREQGHAPGGTSQARQIDFPLRILVPTQFVGAIIGKEGLTIKNITKQTQSRVDIHRKENSGAAEKPVTIHATPEGTSEACRMILEIMQKEADETKLAEEIPLKILAHNGLVGRLIGKEGRNLKKIEHETGTKITISSLQDLSIYNPERTITVKGTVEACASAEIEIMKKLREAFENDMLAVNQQANLIPGLNLSALGIFSTGLSVLSPPAGPRGAPPAAPYHPFTTHSGYFSSLYPHHQFGPFPHHHSYPEQEIVNLFIPTQAVGAIIGKKGAHIKQLARFAGASIKIAPAEGPDVSERMVIITGPPEAQFKAQGRIFGKLKEENFFNPKEEVKLEAHIRVPSSTAGRVIGKGGKTVNELQNLTSAEVIVPRDQTPDENEEVIVRIIGHFFASQTAQRKIREIVQQVKQQEQKYPQGVASQRSK”, the protein production result is reported as “not failed”.

“SNSALYNVDAGHRAVIFDRFRGVQDIVVGEGTHFLIPWVQKPIIFDCRSRPRNVPVITGSKDLQNVNITLRILFRPVASQLPRIYTSIGEDYDERVLPSITTEILKSVVARFDAGELITQRELVSRQVSDDLTERAATFGLILDDVSLTHLTFGKEFTEAVEAKQVAQQEAERARFVVEKAEQQKKAAIISAEGDSKAAELIANSLATAGDGLIELRKLEAAEDIAYQLSRSRNITYLPAGQSVLLQLPQ”: the protein production entry is on record as “not failed”.

Take “SPAYQEDREEDTCTIGEREKTIATQRIKGFGVENPVLPESPPASMSSVMKNNPLYGDITLEEAMEERKKSPSWTIEEYDKHSVHTNLSGHLKENPNDLRFWLGDTYTPGFDTLLKKKKKRNKRSKLCHMGLILLLVASILVTIVTLSTIFS”: the protein production result is reported as “failed”.

Consider “SPFDTGPELESQIRNQYGVDVHVVPVLDTLNEAETLDRVAMQAARTIGPLVDSNAIIGVAWGATLSAVSRHLTRKMTHDSIVVQLNGAGNMQTTGITYASDIMRRFGSAYGARVEQFPVPAFFDHASTKTAMWNERSVQRILDLQARMSIAIFGVGSVDSDYPSHVYAGGYLDEHDLTMLAADDVVGDVATVFFRSDGSSDGITLNERSTGPSHEQLRQVRRRICVVSGASKINGLQGALAAGLATDLILDEASARRLVSFNGH”, for which the protein production result is listed as “not failed”.

In the case of “SQEANYGALLRELCLTQFQVDMEAVGETLWCDWGRTIRSYRELADCTWHMAEKLGCFWPNAEVDRFFLAVHGRYFRSCPISGRAVRDPPGSILYPFIVVPITVTLLVTALVVWQSKRTEGIV”, the protein production result was “failed”.

Consider “SQEQAQTTDWRATLKTIRNGVHKIDTYLNAALDLLGGEDGLCQYKCSDGSKPFPRYGYKPSPPNGCGSPLFGVHLNIGIPSLTKCCNQHDRCYETCGKSKNDCDEEFQYCLSKICRDVQKTLGLTQHVQACETTVELLFDSVIHLGCKPYLDSQRAACRCHYEEKTDL”, for which the protein production entry is “not failed”.

“SQFVLQDLQDATLGSLLSSLMQHCDPPQRKYPLEKGTPPPWWPTGNEEWWVKLGLPKSQSPPYRKPHDLKKMWKVGVLTAVINHMLPDIAKIKRHVRQSKCLQDKMTAKESAIWLAVLNQEESLIQQ”: the protein production result is “not failed”.

Consider “SQSLKPEPFGRRAQAVETNKTLHEMKTRFLLFGETNQGCQIRINHPDTLQECGFNSSLPLVMIIHGWSVDGVLENWIWQMVAALKSQPAQPVNVGLVDWITLAHDHYTIAVRNTRLVGKEVAALLRWLEESVQLSRSHVHLIGYSLGAHVSGFAGSSIGGTHKIGRITGLDAAGPLFEGSAPSNRLSPDDANFVDAIHTFTREHMGLSVGIKQPIGHYDFYPNGGSFQPGCHFLELYRHIAQHGFNAITQTIKCSHERSVHLFIDSLLHAGTQSMAYPCGDMNSFSQGLCLSCKKGRCNTLGYHVRQEPRSKSKRLFLVTRAQSPFKVYHYQLKIQFINQTETPIQTTFTMSLLGTKEKMQKIPITLGKGIASNKTYSFLITLDVDIGELIMIKFKWENSAVWANVWDTVQTIIPWSTGPRHSGLVLKTIRVKAGETQQRMTFCSENTDDLLLRPTQEKIFVKCEIKSKTSKRKIR”, for which the protein production result was “failed”.

In the case of “SQVDDWIVGLEVEIFTFDGKEYRGIVYTYDADANCVVLARKSQDSLKSDLRILKASLVKNINVLGRSNVDQLPQQLSPLNLEALKMREEQALQKARKDLARTGVGVSQQAQEIFDALCKTLPCQWEEDSIVIFENIKLKKPYRVEDLDEIEAVNRVKVVLENELQKLQRRNT”, the protein production result is “not failed”.

As for “SSAQFDHVTVIKKSNVYFGGLCISHTVQFEDGTKKTLGVILPTEQPLTFETHVPERMEIISGECRVKIADSTESELFRAGQSFYVPGNSLFKIETDEVLDYVCHLE”, the protein production entry was “failed”.

Consider “SSFQGPLDATVVVNLQSPTLEEKNEFPEDLRTELMQTLGSYGTIVLVRINQGQMLVTFADSHSALSVLDVDGMKVKGRAVKI”, for which the protein production result is on record as “not failed”.

Take “SSHQPLSCLTEKEDSPSESTGNGPPHLAHPNLDTFTPEELLQQMKELLTENHQLKEAMKLNNQAMKGRFEELSAWTEKQKEERQFFEIQSKEAKERLMALSHENEKLKEELGKLKGKSERSSEDPTDDSRLPRAEAEQEKDQLRTQVVRLQAEKADLLGIVSELQLKLNSSGSSEDSFVEIRMAEGEAEGSVKEIKHSPGPTRTVSTGTSRSADGAKNYFEHEELTVSQLLLCLREGNQKVERLEVALKEAKERVSDFEKKTSNRSEIETQTEGSTEKENDEEKGPETVGSEVEALNLQVTSLFKELQEAHTKLSEAELMKKRLQEKCQALERKNSAIPSELNEKQELVYTNKKLELQVESMLSEIKMEQAKTEDEKSKLTVLQMTHNKLLQEHNNALKTIEELTRKESEKVDRAVLKELSEKLELAEKALASKQLQMDEMKQTIAKQEEDLETMTILRAQMEVYCSDFHAERAAREKIHEEKEQLALQLAVLLKENDAFEDGGRQSLMEMQSRHGARTSDSDQQAYLVQRGAEDRDWRQQRNIPIHSCPKCGEVLPDIDTLQIHVMDCII”: the protein production entry was “failed”.

As to “SSNYPRCWNCGGPWGPGREDRFFCPQCRALQAPDPTRDYFSLMDCNRSFRVDTAKLQHRYQQLQRLVHPDFFSQRSQTEKDFSEKHSTLVNDAYKTLLAPLSRGLYLLKLHGIEIPERTDYEMDRQFLIEIMEINEKLAEAESEAAMKEIESIVKAKQKEFTDNVSSAFEQDDFEEAKEILTKMRYFSNIEEKIKLKKIPL”, the protein production entry was “failed”.
